# Measurements taken from patent publication US20250041379A1, “METHODS AND COMPOSITIONS FOR THE TREATMENT OF CANCER” (Vigeo Therapeutics, Inc., priority 2021, published 2025).
# No end group written: not given here.
# Key:
# [1] = system: subjects with pancreatic cancer; experiment: Phase I/II clinical study (NCT03364400): adverse events in subjects with pancreatic cancer; type: in vivo, human
# Description: VT1021 was evaluated in a recently completed phase I/II open-label, multicenter, dose escalation (Part 1) and expansion (Part 2) clinical study in advanced, refractory, solid tumors including pancreatic cancer (NCT03364400). Seven subjects with pancreatic cancer were dosed in Part 1 and 32 were dosed in Part 2, 17 of which were considered evaluable as having completed ≥1 cycle of VT1021 treatment and tumor imaging during cycle 2. […] In the “expansion stage” of the VT1021-01 Study, subjects diagnosed with recurrent GBM, pancreatic cancer, ovarian cancer and other solid tumors were enrolled. They were treated with VT1021 at 11.8 mg/kg, twice weekly by IV infusion. The blood samples were collected from the clinical study at pre-treatment, 0, 2, 4, 6 hours post treatment to measure the levels of VT1021 (FIG. 2). The tumor biopsy samples prior to treatment and during treatment were collected from the clinical study to measure expression levels of biomarkers including CD36 and CD47, as well as cell surface markers for immune cell populations in the TME by immunohistochemistry assays (FIG. 3, FIG. 4, FIG. 5). The correlation between days on study and tumor shrinkage versus expression profile of CD36 and CD47 was analyzed (FIG. 4). The general expression profile of CD36 and CD47 has been assessed by IHC on Tumor Tissue Microarrays (TMAs), which contain biopsy samples collected from pancreatic cancer patients. TMAs were purchased from commercial sources, not related to the VT1021-01 clinical study. Common adverse effects (AEs) in escalation subjects with pancreatic cancer (Part 1) are shown in Table 1 The AEs shown occurred in 2 or more subjects, all cycles, maximum grade, regardless of toxicity). Of 39 pancreatic cancer subjects enrolled and dosed, 7 subjects were enrolled in the Part 1 escalation cohort. All 7 subjects reported at least one AE (regardless of causality). Four subjects had at least one AE, which was probably or possibly related to the study drug. […] Five subjects reported at least one severe adverse event (SAE) (regardless of causality). Two subjects had SAEs definitely or possibly related to study drug: infusion related reaction (grade 3), altered mental status (grade 2). Thirty-two subjects were enrolled in the Part 2 […] cohort. Thirty subjects reported at least one AE (regardless of causality). Eighteen subjects had at least one AE definitely, probably or possibly related to the study drug. Twenty subjects reported at least one SAE (regardless of causality). Two subjects had SAEs possibly related to study drug: thrombosis (grade 3), fever (grade 1)
# [2] = system: circulating immune cells (CTLs, helper T cells, MDSCs); experiment: Flow cytometry of immune cells isolated from whole blood of rGBM subjects; type: in vivo, human; details: Cycle 1 Day 1
# Source text: FIG. 11A, FIG. 11B, FIG. 11C, FIG. 11D, FIG. 11E, and FIG. 11F are charts showing modulation of the immune system by VT1021 in circulation and in the TME. […] Proliferating CTLs increased ≥1.5 fold regardless of clinical response, proliferating helper T cells increased ≥1.5 fold in CR/PR and PD subjects while monocytic MDSCs (mMDSCs) and activated MDSCs decreased≤0.5 fold in all evaluable subjects. […] Percent of M1 increased 1.9-fold while M2 decreased 0.6-fold after treatment. […] CTLs increased >4 fold while total and mMDSCs […] >15 fold in the on-study biopsy compared to pre-treatment.
# [3] = Part 1 escalation cohort, 7 pancreatic cancer subjects
# [4] = Part 1 escalation, pancreatic cancer, all cycles, maximum grade
# [5] = Part 2 cohort, 32 pancreatic cancer subjects
# [6] = Part 2 expansion, pancreatic cancer, all cycles, maximum grade
# [7] = whole blood before and after 6 hours, all evaluable subjects, decreased
substance,measurement,setting,value
"cyclic DWLPK (also: cyclic, mode of cyclisation not given here) [VT1021, 5-amino acid cyclic peptide from prosaposin; Tsp-1-inducing agent]","Urinary tract infection (AE), Grade 2",[1],2 subjects
same,subjects with SAEs definitely or possibly related to study drug,"[1]; Part 1, 7 pancreatic cancer subjects, infusion related reaction (grade 3), altered mental status (grade 2)",Two
same,dose-limiting toxicity,[1]; [3],no dose-limiting toxicity
same,subjects reporting at least one AE (regardless of causality),[1]; [3],7 subjects
same,subjects reporting at least one severe adverse event (SAE) (regardless of causality),[1]; [3],Five
same,subjects with at least one AE probably or possibly related to the study drug,[1]; [3],Four
same,"Abdominal pain (AE), Grade 1",[1]; [4],3 subjects
same,"Abdominal pain (AE), Grade 3",[1]; [4],1 subjects
same,"Abdominal pain (AE), Total",[1]; [4],4 subjects
same,"Constipation (AE), Grade 1",[1]; [4],1 subjects
same,"Constipation (AE), Grade 3",[1]; [4],1 subjects
same,"Constipation (AE), Total",[1]; [4],2 subjects
same,"Fatigue (AE), Grade 1",[1]; [4],2 subjects
same,"Fatigue (AE), Total",[1]; [4],2 subjects
same,"Infusion related reaction (AE), Grade 2",[1]; [4],1 subjects
same,"Infusion related reaction (AE), Grade 3",[1]; [4],1 subjects
same,"Infusion related reaction (AE), Total",[1]; [4],2 subjects
same,"Nausea (AE), Grade 1",[1]; [4],2 subjects
same,"Nausea (AE), Total",[1]; [4],2 subjects
same,"Thrombosis (AE), Grade 3",[1]; [4],2 subjects
same,"Thrombosis (AE), Total",[1]; [4],2 subjects
same,subjects with SAEs possibly related to study drug,"[1]; Part 2, 32 pancreatic cancer subjects, thrombosis (grade 3), fever (grade 1)",Two
same,subjects reporting at least one AE (regardless of causality),[1]; [5],Thirty
same,subjects reporting at least one SAE (regardless of causality),[1]; [5],Twenty
same,"subjects with at least one AE definitely, probably or possibly related to the study drug",[1]; [5],Eighteen
same,"Abdominal pain (AE), Grade 1",[1]; [6],3 subjects
same,"Abdominal pain (AE), Grade 2",[1]; [6],9 subjects
same,"Abdominal pain (AE), Grade 3",[1]; [6],4 subjects
same,"Abdominal pain (AE), Total",[1]; [6],16 subjects
same,"Alanine aminotransferase increased (AE), Grade 1",[1]; [6],4 subjects
same,"Alanine aminotransferase increased (AE), Grade 3",[1]; [6],2 subjects
same,"Alanine aminotransferase increased (AE), Total",[1]; [6],6 subjects
same,"Anaemia (AE), Grade 1",[1]; [6],4 subjects
same,"Anaemia (AE), Grade 2",[1]; [6],2 subjects
same,"Anaemia (AE), Grade 3",[1]; [6],1 subjects
same,"Anaemia (AE), Total",[1]; [6],7 subjects
same,"Aspartate aminotransferase increased (AE), Grade 1",[1]; [6],2 subjects
same,"Aspartate aminotransferase increased (AE), Grade 2",[1]; [6],2 subjects
same,"Aspartate aminotransferase increased (AE), Grade 3",[1]; [6],2 subjects
same,"Aspartate aminotransferase increased (AE), Total",[1]; [6],6 subjects
same,"Blood bilirubin increased (AE), Grade 2",[1]; [6],3 subjects
same,"Blood bilirubin increased (AE), Grade 3",[1]; [6],4 subjects
same,"Blood bilirubin increased (AE), Total",[1]; [6],7 subjects
same,"Constipation (AE), Grade 1",[1]; [6],4 subjects
same,"Constipation (AE), Grade 2",[1]; [6],4 subjects
same,"Constipation (AE), Total",[1]; [6],8 subjects
same,"Decreased appetite (AE), Grade 1",[1]; [6],7 subjects
same,"Decreased appetite (AE), Grade 2",[1]; [6],2 subjects
same,"Decreased appetite (AE), Grade 3",[1]; [6],2 subjects
same,"Decreased appetite (AE), Total",[1]; [6],11 subjects
same,"Diarrhoea (AE), Grade 1",[1]; [6],5 subjects
same,"Diarrhoea (AE), Grade 2",[1]; [6],3 subjects
same,"Diarrhoea (AE), Total",[1]; [6],8 subjects
same,"Fatigue (AE), Grade 1",[1]; [6],3 subjects
same,"Fatigue (AE), Grade 2",[1]; [6],8 subjects
same,"Fatigue (AE), Grade 3",[1]; [6],3 subjects
same,"Fatigue (AE), Total",[1]; [6],14 subjects
same,"Insomnia (AE), Grade 1",[1]; [6],6 subjects
same,"Insomnia (AE), Total",[1]; [6],6 subjects
same,"Nausea (AE), Grade 1",[1]; [6],10 subjects
same,"Nausea (AE), Grade 2",[1]; [6],3 subjects
same,"Nausea (AE), Grade 3",[1]; [6],1 subjects
same,"Nausea (AE), Total",[1]; [6],14 subjects
same,"Pyrexia (AE), Grade 1",[1]; [6],6 subjects
same,"Pyrexia (AE), Total",[1]; [6],6 subjects
same,"Urinary tract infection (AE), Total","[1]; human, in vivo",2 subjects
same,major adverse events (AEs),"[1]; phase I/II study, solid tumors including pancreatic cancer",no major adverse events
same,"Proliferating CTLs, fold change","[2]; whole blood before and after 6 hours of treatment, regardless of clinical response, increased",≥ 1.5 fold
same,"proliferating helper T cells, fold change","[2]; whole blood before and after 6 hours, CR/PR and PD subjects, increased",≥ 1.5 fold
same,"activated MDSCs, fold change",[2]; [7],≤ 0.5 fold
same,"monocytic MDSCs (mMDSCs), fold change",[2]; [7],≤ 0.5 fold
